# Assay results from patent US9233155B2, “Method of treating solid cancers using anti-c-Met antibody and sorafenib combination therapy” (Samsung Electronics Co., Ltd., priority 2013, dated 2016).
# B1: L3-1Y: anti-c-Met antibody: heavy chain variable region of huAbF46-H4-A1, human IgG2 hinge and IgG2 constant region, kappa light chain (antibody)
# heavy: EVQLVESGGGLVQPGGSLRLSCAASGFTFTDYYMSWVRQAPGKGLEWLGFIRNKANGYTTEYSASVKGRFTISRDNSKNTLYLQMNSLRAEDTAVYYCARDNWFAYWGQGTLVTVSSASTKGPSVFPLAPCSRSTSESTAALGCLVKDYFPEPVTVSWNSGALTSGVHTFPAVLQSSGLYSLSSVVTVPSSNFGTQTYTCNVDHKPSNTKVDKTVERKCCVECPPCPAPPVAGPSVFLFPPKPKDTLMISRTPEVTCVVVDVSHEDPEVQFNWYVDGVEVHNAKTKPREEQFNSTFRVVSVLTVVHQDWLNGKEYKCKVSNKGLPAPIEKTISKTKGQPREPQVYTLPPSREEMTKNQVSLTCLVKGFYPSDIAVEWESNGQPENNYKTTPPMLDSDGSFFLYSKLTVDKSRWQQGNVFSCSVMHEALHNHYTQKSLSLSPGK
# light: DIQMTQSPSSLSASVGDRVTITCKSSQSLLASGNQNNYLAWYQQKPGKAPKMLIIWASTRVSGVPSRFSGSGSGTDFTLTISSLQPEDFATYYCQQSYSRPYTFGQGTKVEIKRTVAAPSVFIFPPSDEQLKSGTASVVCLLNNFYPREAKVQWKVDNALQSGNSQESVTEQDSKDSTYSLSSTLTLSKADYEKHKVYACEVTHQGLSSPVTKSFNRGEC
# Columns and labels:
# [1] = test system: MKN45 gastric cancer cells; assay: Cell growth inhibition in MKN45 gastric cancer cell line (CellTiter Glo); format: cell-based
# Method: In particular, RPMI1640 medium (GIBCO) containing 10% FBS was added to a 96 well plate. MKN45 gastric cancer cells (JCRB, JCRB0254) were seeded thereon in the amount of 5,000 cells/well, and incubated overnight at 37° C. After 24 hours (the next day), the incubated cells were treated with (a) L3-1Y (Reference Example 1) alone or (b) L3-1Y and sorafenib. For the single treatment of L3-1Y alone, the concentration of L3-1Y was 0 μg/mL, 0.016 μg/mL, 0.08 μg/mL, 0.4 μg/mL, or 2 μg/mL. For the co-administration of L3-1Y and sorafenib, the concentration of sorafenib was fixed at 4 μM, which is a concentration of IC30 in MKN45 cell line, and the concentration of L3-1Y was 0 μg/mL, 0.016 μg/mL, 0.08 μg/mL, 0.4 μg/mL, or 2 μg/mL.
# (§1) At 72 hours after the single treatment or the co-treatment, 100 μL of CellTiter Glo solution (Promega, G7572) was added to each well, and left for 30 minutes at room temperature. The cell number was counted by emission signal, and the emission signal was recorded using Envision 2104 Multi-label Reader (Perkin Elmer).
# EBC1 lung cancer cells = assay: Cell growth inhibition in EBC1 lung cancer cell line (CellTiter Glo); format: cell-based; conditions: L3-1Y 0-2 μg/mL alone, sorafenib 4 μM alone, or both; 72 hours
# Method: (§2) In particular, RPMI1640 medium (GIBCO) containing 10% FBS added to a 96 well plate. EBC1 lung cancer cells (JCRB, JCRB0820) were seeded thereon in the amount of 5,000 cells/well, and incubated overnight at 37° C. After 24 hours (the next day), the incubated cells were treated with (a) L3-1Y (Reference Example 1) alone or (b) L3-1Y and sorafenib. For the single treatment of L3-1Y alone, the concentration of L3-1Y was 0 μg/mL, 0.016 μg/mL, 0.08 μg/mL, 0.4 μg/mL, or 2 μg/mL. For the co-treatment of L3-1Y and sorafenib, the concentration of sorafenib was fixed at 4 μM, and the concentration of L3-1Y was 0 μg/mL, 0.016 μg/mL, 0.08 μg/mL, 0.4 μg/mL, or 2 μg/m L.
# as §1
# [2] = test system: MKN45 gastric cancer cells; assay: Tumor xenograft model of gastric cancer cell line MKN45; format: in vivo, BALB/c nude mice; conditions: sorafenib 3.3 mg/kg P.O. once a day, L3-1Y 1 mg/kg I.V. once a week, day 21
# Method: (§3) To verify the in vivo effect of the co-administration on tumor growth, a tumor xenograft model using male 5-6 week-old BALB/c nude mice (Pharmalegacy, China) was prepared. The mice were adapted at least one week before inoculation of tumor cells.
# (§4) Then, the mice were anesthetized with 1-2% isofurane, and MKN45 gastric cancer cells (JCRB, JCRB0254) were subcutaneously injected into the right flank of the mice in the amount of 5×10^6 cells per mouse. 7 days after, when the average size of the tumor reaches 50 mm^3 or more, the mice were grouped as follows: a group treated with sorafenib (3.3 mg/kg, P.O., once a day), a group treated with L3-1Y (1 mg/kg, I.V., once a week), a group co-treated with L3-1Y (1 mg/kg, I.V., once a week) and sorafenib (3.3 mg/kg, P.O., once a day), and a group (control) treated with vehicle (PBS 0.2 ml, I.V., once a week). Each group consisted of 10 mice.
# (§5) The experiment was performed for 4 weeks in total, and tumor size and body weight of the mice were measured twice a week. The tumor volume (V) was calculated by the following formula: V (mm^3)={length of long axis (mm)×(length of short axis (mm))^2}/2.
# HT29 colon cancer cells [3] = assay: Tumor xenograft model of colon cancer cell line HT29; format: in vivo, BALB/c nude mice; conditions: for Tumor Inhibition Rate at 21st day (%; compared to vehicle-treated group (0%)): sorafenib 3.3 mg/kg P.O. once a day, L3-1Y 1 mg/kg I.V. once a week, day 21
# Method: as §3
# as §4, with “and HT29 colon” for “and MKN45 gastric”, “cells I(ATCC, HTB-38)” for “cells (JCRB, JCRB0254)”, “mice at” for “mice in”, “week).” for “week). Each group consisted of 10 mice.”
# as §5
# HT29 colon cancer cells [4] = assay: Cell growth inhibition in HT29 colon cancer cell line (CellTiter Glo); format: cell-based; conditions: L3-1Y 0-2 μg/mL alone or with sorafenib fixed at 4 μM, 72 hours
# Method: as §2, with “FBS was” for “FBS”, “HT29 colon” for “EBC1 lung”, “(ATCC, HTB-38)” for “(JCRB, JCRB0820)”, “μg/mL.” for “μg/m L.”
# as §1
# [5] = test system: HCC1806 breast cancer cell line; assay: Cell growth inhibition in HCC1806 breast cancer cell line (CellTiter Glo); format: cell-based; conditions: L3-1Y 0-2 μg/mL alone or with sorafenib fixed at 3 μM, 72 hours
Molecule,"inhibition at 4 µM ([1]; Homo sapiens, MKN-45, single treatment of sorafenib 4 μM (0 μg/mL of L3-1Y), 72 hours, read-out: cell growth inhibition rate) [%]",concentration of IC30 in MKN45 cell line ([1]; MKN45 cell line) [µM],cell growth inhibiting effect (EBC1 lung cancer cells),Tumor Inhibition Rate at 21st day (%; compared to vehicle-treated group (0%)) [2] [%],Tumor Inhibition Rate at 21st day (%; compared to vehicle-treated group (0%)) (HT29 colon cancer cells [3]) [%],"cell growth inhibiting effect ([1]; L3-1Y 0-2 μg/mL alone or with sorafenib fixed at 4 μM, 72 hours)","cell growth inhibiting effect ([1]; L3-1Y 0.08 μg/mL, alone or with 4 μM sorafenib, 72 hours)",cell growth inhibiting effect (HT29 colon cancer cells [4]),cell death / cell growth inhibiting effect [5],tumor inhibiting effect (HT29 colon cancer cells [3]; same doses as Table 4)
"CNC(=O)c1cc(Oc2ccc(NC(=O)Nc3ccc(Cl)c(C(F)(F)F)c3)cc2)ccn1 [Sorafenib, 4-[4-[[4-chloro-3-(trifluoromethyl)phenyl]carbamoylamino]phenoxy]-N-methyl-pyridine-2-carboxamide]",30,4,no cell growth inhibiting effect,24.7,22.1,–,–,–,–,–
B1,–,–,observed,36.2,−0.9,observed,only a little effect,not observed,not observed,no tumor inhibiting effect
